The values that follow come from publication PMC8991485, “Protein purification strategies must consider downstream applications and individual biological characteristics” (Microbial Cell Factories, 2022).

By stoichiometry N is commonly meant a count of units in the complex or per binding partner.

Data set [1] concerns the target wild-type recombinant soluble LLT1. The data set can be described thus: SEC; gel filtration of recombinant soluble LLT1 made in HEK293T; peak at 16 ml taken as the non-covalent dimer. (Size exclusion chromatography separates by hydrodynamic size, large species first.)
Data set [2] deals with cysteine-less mutant of Galectin-1 (UniProt P09382). The data set can be described thus: AUC; analytical ultracentrifugation (sedimentation) of Galectin-1 purified in reducing or non-reducing conditions.
Data set [3] concerns the molecule itself. The data set is described as follows: SEC; gel filtration of recombinant soluble LLT1 made in HEK293T; peak at 16 ml taken as the non-covalent dimer.

For the molecule “wild-type recombinant soluble LLT1 (domain or fragment)”, the stoichiometry N in data set [1] turned out to be 2.

Regarding “cysteine-less mutant of Galectin-1 (from UniProt P09382 1-135)”, the stoichiometry N in data set [2] turned out to be 2.

B1: soluble LLT1 H176C mutant (domain or fragment)
chain: QAACPESWIGFQRKCFYFSDDTKNWTSSQRFCDSQDADLAQVESFQELNFLLRYKGPSDHWIGLSREQGQPWKWINGTEWTRQFPILGAGECAYLNDKGASSARCYTERKWICSKSDIHV
notes: soluble fragment of the lymphocyte receptor LLT1 with H176C, which restores the disulfide Cys163-Cys176; also called second mutant; source: HEK293T cell line, purified (gel filtration)
Consider B1, for which, in data set [3], the “stoichiometry N” value was found to be 2.
